Data published in PMC4403821.

Tests used:
[1] = target: ORF74-ST/A (Kaposi's sarcoma-associated herpesvirus (KSHV)) (UniProt Q98146)
[2] = target: ORF74-ST/A (Kaposi's sarcoma-associated herpesvirus (KSHV)) (UniProt Q98146); test: radioligand binding; whole transfected HEK293T cells, 100 pM ^125I-CXCL10 with increasing unlabeled CXCL10, 3h at 4°C, 50 mM HEPES pH 7.4, 1 mM CaCl2, 5 mM MgCl2, 0.5% BSA; washes with 0.5 M NaCl; Ki from IC50 by Cheng and Prusoff
^125I-CXCL8 = test: radioligand binding (125I-CXCL8 homologous competition) on intact HEK293T cells; conditions: point at the lowest unlabeled CXCL8 concentration, log [CXCL8] = -11 M; parent: est. 100; read off a plot

Question: For CXCL8 (ligand), which PLC activation (InsP accumulation) in HEK293T, pEC50 [1] is on record?
Answer: Its PLC activation (InsP accumulation) in HEK293T, pEC50 is over 7.

Question: How did the inhibition of constitutive PLC activation (InsP accumulation) in HEK293T, pEC50 [1] turn out when “CXCL10 (from UniProt P02778 22-98) (ligand)” was run?
Answer: The inhibition of constitutive PLC activation (InsP accumulation) in HEK293T, pEC50 was 8.

Question: And the pKi [2]?
Answer: The pKi was 8.4.

Question: With “WT-ORF74 (from UniProt Q98146) S315A; S319A; S331A; S335A; S338A; T341A; T342A” as the substance, how does the percent of parent (% of specific binding of WT-ORF74) (^125I-CXCL8) read?
Answer: Its percent of parent (% of specific binding of WT-ORF74) is 3.
